1 substance from article PMC9901172 can be followed below.

Assay [1] has as its target Kap114•XFD488-H2A-H2B complex (yeast | frog) (UniProt P53067). Description: fluorescence polarisation. (In general: In fluorescence polarisation assays a small probe gives low polarisation when free and higher when bound to something large.)
Assay [2] concerns the target Imp9•XFD488-H2A-H2B complex (human | frog) (UniProt Q96P70). Description: fluorescence polarisation.

For “yeast RanGTP (Saccharomyces cerevisiae Gsp1 residues 1-179 with Q71L) (from UniProt P32835 1-179) (domain or fragment)”, the results for the Kd in assay [1] and in assay [2] were 270 nM and 150 nM, respectively.

A word on the Kd: it is the concentration at which binding is half-saturated. A lower Kd goes with a tighter complex.
